According to US20170002081A1:

What was measured:
[1] = biological target: human CSF-1R, full length, on cells (human) (UniProt P07333); assay: displacement of ^125I-H27K15 on EL4-CSF-1R cells
[2] = biological target: CSF-1R20-512-Fc (R&D Systems cat. 329-MR) (human) (UniProt P07333); assay: competition ELISA, post-incubation: coated Fc-D1-D5 human CSF-1R, biotinylated CSF-1(1-444) 1 hour, then mAb 1 hour; streptavidin-HRP
[3] = biological target: CSF-1R20-512-Fc (R&D Systems cat. 329-MR) (human) (UniProt P07333); assay: competition ELISA, co-incubation: coated Fc-D1-D5 human CSF-1R, mAb and biotinylated CSF-1(1-444) together 1 hour; streptavidin-HRP
[4] = biological target: human CSF-1R, full length, on cells (human) (UniProt P07333); assay: displacement of 1.5 nM ^125I-H27K15 (competitor) on EL4-CSF-1R cells
[5] = biological target: CSF-1R20-512-Fc (R&D Systems cat. 329-MR) (human) (UniProt P07333); assay: competition ELISA, pre-incubation: coated Fc-D1-D5 human CSF-1R, mAb 1 hour, then biotinylated CSF-1(1-444) 1 hour; streptavidin-HRP
[6] = biological target: CSF-1R20-512-Fc (R&D Systems cat. 329-MR) (human) (UniProt P07333); assay: competition ELISA with biotinylated CSF-1(1-444) on coated CSF-1R-Fc, saturation doses, pre-, co- or post-incubation
[7] = biological target: human CSF-1R, full length, on cells (human) (UniProt P07333); assay: displacement of 1.5 nM ^125I-H27K15 (competitor) on EL4-CSF-1R cells, Cheng-Prusoff

Ki [1] | IC50 (read off the curve) [2] | IC50 (read off the curve) [3] | IC50 [4] | IC50 (read off the curve) [5] | decrease of the CSF-1 binding to CSF-1R (%) [6] | Ki [7] | Substance
> 1 nM | 0.6 µg/mL | 1 µg/mL | 2.18 nM | 0.5 µg/mL | 30 to 40% | 1.28 nM | mAb 3291 (murine IgG1, clone 61701, R&D Systems MAB3291) (antibody)
> 1 nM |  |  | 3.02 nM |  |  | 1.78 nM | mAb JF14 (murine IgG1, Santa Cruz sc-80174) (antibody)
